This experiment concerns the target Recombinant carrier-free human βNGF (human, UniProt P01138 122-241). Put plainly: SPR; BIACORE; PDPN/Fc amine-coupled to a CM5 chip (6000 to 8000 RU); analyte injected at 5 μl/min; NGF at 1 μM; 20 °C; HBS-P (0.01 M Hepes pH 7.4/0.15 M NaCl/0.005% Surfactant P20); reference channel subtracted; regeneration with 1% heparin in PBS; 1:1 Langmuir fit, KD estimated by the steady-state affinity model. To be noted: both partners purified.

This is an account of results in paper PMC5125287 (Annals of Medicine, 2016).

Chain of Recombinant carrier-free human βNGF (P01138 122-241): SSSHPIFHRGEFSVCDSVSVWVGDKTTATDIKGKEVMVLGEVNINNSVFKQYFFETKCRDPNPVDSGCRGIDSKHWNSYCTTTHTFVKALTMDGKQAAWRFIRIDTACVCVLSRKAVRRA

B1: Human podoplanin extracellular domain/Fc chimera (Fc fusion, UniProt Q86YL7 23-131, looked up)
chain: ASTGQPEDDTETTGLEGGVAMPGAEDDVVTPGTSEDRYKSGLTTLVATSVNSVTGIRIEDLPTSESTVHAQEQSPSATASNVATSHSTEKVDGDTQTTVEKDGLSTVTL
A word on the Kd: it is the concentration at which binding is half-saturated. Consider B1, for which the dissociation constant Kd was about 100 nM.
